Experimental data from the supplement of paper PMC9170038.

How the values were obtained:
MS2 coat protein [1] = assay: apparent KD of MS2 coat protein, switch ON state; designed switch direction (-1 OFF switch, 1 ON switch): -1; higher = weaker reporter binding; conditions: FMN input: 0 or 200 uM; Eterna round: R93 (includes R88 designs)
Procedure, shortened: (§1)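 The buffer was 100 mM Tris-HCl pH 7.5 with 80 mM KCl and 4 mM MgCl2, used without or with constant ligand. In it, RNA switches transcribed on-chip from Illumina sequencing clusters were titrated with SNAP-549-labelled MS2 coat protein in twofold steps from 0.7 or 1.5 nM to 3 µM. Apparent KD for each design is the median of its normalised cluster binding-curve fits.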

MS2 coat protein [2] = assay: apparent KD of MS2 coat protein, switch OFF state (with FMN for OFF switches, without FMN for ON switches); designed switch direction (-1 OFF switch, 1 ON switch): -1; higher = weaker reporter binding; conditions: FMN input: 0 or 200 uM; Eterna round: R93 (includes R88 designs)
Procedure, shortened: as §1

MS2 coat protein [3] = assay: apparent KD of MS2 coat protein; designed switch direction (-1 OFF switch, 1 ON switch): 1; higher = weaker reporter binding
Procedure, shortened: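 Stalled E. coli RNA polymerase transcribed designed RNA switches on Illumina chips, which were then titrated with SNAP-549-labelled MS2 coat protein, doubling from 0.7 or 1.5 nM to 3 µM. Steps lasted from 0.8–1.5 h at the lowest concentration to 10–20 min at the highest. The apparent KD is each design's median over clusters of curve-fitted normalised fluorescence.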

[4] = Eterna round: R95, input ligand: FMN 200 uM
[5] = Eterna round: R95, input ligand: microRNA oligo, concentration not stated
[6] = Eterna round: R95, input ligand: none
[7] = input ligand: microRNA oligo, concentration not stated

Row | Sequence | apparent KD of MS2 coat protein (MS2 coat protein [1]) [nM] | apparent KD of MS2 coat protein (MS2 coat protein [2]) [nM] | also measured
1 | AAGAACAUAGGAUAUACAAGGAAGAAAGAAAAGAAAAGAAAACAUGAGGAUCACCCAUGUAGAAGGAUGUAGAA [EteRNA is fun!] | 24.4 | 24.8 | 
2 | AUAAAACAUGAGGAUCACCCAUGUGAGGAUAUGCGAAACAAAGAAACAAACAAACAAAGCAGAAGGCACAAUAA [Amethyst 7] | 24.2 | 39.2 | 
3 | AACUGACAUGAGGAUCACCCAUGUCAGGAUAUGAUAUGUAAAAAAAAAAAAAUACUUAUCAGAAGGGACAUGGA [Design 42: Sub-opt BB] | 22.8 | 30 | 
4 | AACAGGUUAGGAUAUGUGUAACAAAUAAAAAAAAUAUAAACACAGAAGGAACAUGAGGAUCACCCAUGUUAACA [May 28] | 24.4 | 17 | 
5 | AACAGUACAGGAUAUACAUGAGGAUCACCCAUGUGAGAAUUAAGUGGCGAACCACAAAGUAGAAGGGUACUGGA [Mat - Exclusion 3 - JL mod - D1] | 43.1 | 469 | 
6 | AGCAUGUGAGGAUAUGCGGACUCCAAUAAAUCUGGAGUCCAGUAGAAGGCACAUGAGGAUCACCCAUGUGAUAA [Soenaesma] | 102 | 117 | 
7 | AGUGAGUGAGGAUAUCACUGAACAACAAAACAAAUAACGAGUGAGAAGGCACAUGAGGAUCACCCAUGUACACA [May 67] | 23.4 | 19.2 | 
8 | AAAAAGUCAGGAUAUACAUGAGGAUCACCCAUGUGAAAGAACGAAAAACGAAAAGCAAGUAGAAGGGACAAAAA [Ruby 78] | 13.1 | 14 | 
9 | AGCUAGUCAGGAUAUACAAAAUGAUUGCGAAAGCAAUCAACACAUGAGGAUCACCCAUGUAGAAGGGACUAGCA [Mat - Exclusion 2 - JL-Eli mod - D43] | 18.5 | 21.1 | 
10 | AAGAAACUAGGAUAUACAAGGAAGAAAGAAAAGAAAAGAAAACAUGAGGAUCACCCAUGUAGAAGGAGUUAGAA [EteRNA is fun!] | 36.3 | 31.3 | 
11 | AAAAAGGUAGGAUAUACGAAAAAAAAGGGUAAAAUAAAUAAACAUGAGGAUCACCCAUGUAGAAGGACCAAAAA [Mat - Exclusion 2 - Tesla mod - D38] | 23.5 | 161 | 
12 | AAAUUGUCAGGAUAUCCAGCUAUACGAAAUAUAUAUACACGGGAGAAGGGACAUGAGGAUCACCCAUGUUUGAA [JR_Exc004_Sub702] | 34 | 27.6 | 
13 | AAAAAACAUGAGGAUCACCCAUGUGAGGAUAUGCGAAAAUAAAAUAAAAUAAUAAAAAGCAGAAGGCACACCAA [58%, Sh'dynasty, 2] | 22 | 29 | 
14 | AAAAGGUCAGGAUAUACAAAAAAAAAAAAAAAAAAAAAAAAGUAGAAGGGACAUGAGGAUCACCCAUGUGAAAA [Exclusion 4 - Omei 2] | 64 | 40.3 | 
15 | CUCUAGUCAGGAUAUCGAAGAAAAGAAGAGAAAGAAAAGAACGAGAAGGGACAUGAGGAUCACCCAUGUAAGAA [EteRNA is fun!] | 50 | 39.2 | 
16 | AAGAAGUCAGGAUAUGCUAAAGAAAUAAAAAGAAAGAAAGAACAUGAGGAUCACCCAUGUAGAAGGGACAAGAA [Seheqenre Sankhptahi] | 72.9 | 38.9 | 

Row | Sequence | apparent KD of MS2 coat protein (MS2 coat protein [1]) [nM] | apparent KD of MS2 coat protein (MS2 coat protein [2]) [nM] | also measured
17 | GCGCACUAAGGAUAUACAUGAGGAUCACCCAUGUGGGUUUUGAAACAGAUUAAAUAGUGUAGAAGGUAGAAAAC [Lees] | 91.9 | 95.8 | 
18 | AAGAAGUGAGGAUAUCGAAGACAGACGAAAAGUCUGUCAAACGAGAAGGCACAUGAGGAUCACCCAUGUGGGAG [Mat - Exaclusion 4 - Eli mod - D74] | 114 | 277 | 
19 | AAGAAGUCAGGAUAUGCUGAUAGUAAAUUGAGUGAUGAGUAGCAGAAGGGACAUGAGGAUCACCCAUGUAAAGA [Opal 12] | 45.4 | 32.6 | 
20 | AAAAAGGUAGGAUAUACGAAAAAAAAGGGUAAAAAAUAAAAACAUGAGGAUCACCCAUGUAGAAGGACCAAAAA [Mat - Exclusion 2 - Tesla mod - D41] | 30.5 | 36.7 | 
21 | AAAAAGGUAGGAUAUACAUGAGGAUCACCCAUGUAAAAAAAUGGAGAAAAAAACAAUUGUAGAAGGGCCAAAAA [Ex3 Malc#7] | 38.8 | 61.6 | 
22 | AGGAAGUGAGGAUAUGCUGCUCGUCACUUGCGUGAUGAGUAGCAGAAGGCACAUGAGGAUCACCCAUGUAAAAA [Mat - Exaclusion 4 - Eli mod - D21] | 46.7 | 48.9 | 
23 | GGAGAGAGAGCACAGGAUAUUAGAGGAGAGACAUGAGGAUCACCCAUGUAAGAGAGAGAGGAGAGUGAGAAGGGUGAGAGAGAGG [Altered State 2-19 - Jieux - Same State 2] (puzzle: Same State 2) |  |  | apparent KD of MS2 coat protein (MS2 coat protein [3]; [4]): 241 nM; apparent KD of MS2 coat protein (MS2 coat protein [3]; [5]): 82.9 nM; apparent KD of MS2 coat protein (MS2 coat protein [3]; [6]): 213 nM
24 | GGACGUCGAUUUCCUACUUAAACAUGAGGAUCACCCAUGUCACAGGAUAUGAGUCCGAUUAGGACUCAGAAGGGUGCGACGUCC [Fiskers NG3ss - 52] (Eterna round: R96, puzzle: Same State NG 3) |  |  | apparent KD of MS2 coat protein (MS2 coat protein [3]; input ligand: FMN 200 uM): 22.7 nM; apparent KD of MS2 coat protein (MS2 coat protein [3]; [7]): 11.1 nM; apparent KD of MS2 coat protein (MS2 coat protein [3]; input ligand: none): 18.8 nM
25 | UUAAAGAAUUAAGGAUAUUGAAUACAUAUGUUUAACAUGAGGAUCACCCAUGUGGGUUGCGGUAUCGAGAAGGUAAAAUAAUAG [Mat - Same State NG 2 - JL mod - D5] (Eterna round: R96, puzzle: Same State NG 2) |  |  | apparent KD of MS2 coat protein (MS2 coat protein [3]; input ligand: FMN 200 uM): 108 nM; apparent KD of MS2 coat protein (MS2 coat protein [3]; [7]): 106 nM; apparent KD of MS2 coat protein (MS2 coat protein [3]; input ligand: none): 118 nM
26 | GGAAAGAGGUCAGGAUAUGAAUGGUUGGGACAUGAGGAUCACCCAUGUAAUAGAAGAAAUCUACAUUAGAAGGGACAAGGAAGG [AK SSNG2-V2-5.1] (Eterna round: R96, puzzle: Same State NG 2) |  |  | apparent KD of MS2 coat protein (MS2 coat protein [3]; input ligand: FMN 200 uM): 129 nM; apparent KD of MS2 coat protein (MS2 coat protein [3]; [7]): 116 nM; apparent KD of MS2 coat protein (MS2 coat protein [3]; input ligand: none): 212 nM
27 | AGAAUGCACAUGAGGAUCACCCAUGUACCCGGCUGGCAUUUGCAGGAUAUGCCGCGGCGAGCCCAGCAGAAGGGCAAGUGCUAA [Eternabot solution 4] (Eterna round: R96, puzzle: Same State NG 3) |  |  | apparent KD of MS2 coat protein (MS2 coat protein [3]; input ligand: FMN 200 uM): 25.8 nM; apparent KD of MS2 coat protein (MS2 coat protein [3]; [7]): 19 nM; apparent KD of MS2 coat protein (MS2 coat protein [3]; input ligand: none): 26.9 nM
28 | GUUACAUGAGGAUCACCCAUGUAUGUGUGGGAGUAAGUGUCUUAGGAUAUCUAUGAUUUAAGUUAAGAGAAGGAAGAUUGUUGU [JMF's solution 80] (Eterna round: R96, puzzle: Same State NG 3) |  |  | apparent KD of MS2 coat protein (MS2 coat protein [3]; input ligand: FMN 200 uM): 118 nM; apparent KD of MS2 coat protein (MS2 coat protein [3]; [7]): 89.5 nM; apparent KD of MS2 coat protein (MS2 coat protein [3]; input ligand: none): 114 nM
29 | UCAAGCGAGAGGCUCGUCUUAUGUAAGGUACAUGAGGAUCACCCAUGUGAGGGACGAUUGAGUUAGAUGGAAUGGAG [JR_SHM208A_Sub033] (puzzle: Sensor for hsa-mir-208a) |  |  | apparent KD of MS2 coat protein (MS2 coat protein [3]; [4]): 42.3 nM; apparent KD of MS2 coat protein (MS2 coat protein [3]; [5]): 121 nM; apparent KD of MS2 coat protein (MS2 coat protein [3]; [6]): 50.9 nM
30 | UUUAGUUGCGCGCAGGAUAUGUAUUAAUAUACAUGAGGAUCACCCAUGUGAGACCAAAUAGGUCUACAGAAGGGCGAAUCGCGAC [Laonerce - 29] (Eterna round: R96, puzzle: Same State 2) |  |  | apparent KD of MS2 coat protein (MS2 coat protein [3]; input ligand: FMN 200 uM): 42.6 nM; apparent KD of MS2 coat protein (MS2 coat protein [3]; [7]): 182 nM; apparent KD of MS2 coat protein (MS2 coat protein [3]; input ligand: none): 354 nM
31 | UGUUAACAUGAGGAUCACCCAUGUCAAAUGAAUCGAGGAUAUGGGAAGUAAUAAGAUAAACUAGAAGGCGAAGUUG [Altered State 1-1 - Jieux - Same State 1] (puzzle: Same State 1) |  |  | apparent KD of MS2 coat protein (MS2 coat protein [3]; [4]): 358 nM; apparent KD of MS2 coat protein (MS2 coat protein [3]; [5]): 106 nM; apparent KD of MS2 coat protein (MS2 coat protein [3]; [6]): 195 nM
32 | GCUCGACGUGUUGUCUACAUGAGGAUCACCCAUGUAGGUGCGGAGGAUAUCUACGUGUUUCAUGUAGAGAAGGUCGUGUCGAGC [SameState NG3 #89] (Eterna round: R96, puzzle: Same State NG 3) |  |  | apparent KD of MS2 coat protein (MS2 coat protein [3]; input ligand: FMN 200 uM): 40.2 nM; apparent KD of MS2 coat protein (MS2 coat protein [3]; [7]): 55.3 nM; apparent KD of MS2 coat protein (MS2 coat protein [3]; input ligand: none): 73.3 nM
